Columns and labels:
[1] = biological target: T1, cynomolgus monkey IL-34 (cynomolgus monkey, UniProt G7Q1L3 21-242); assay: SPR, BIAcore 8K, 37 C, antibody captured on Protein A chip, IL-34 flowed; mean of at least three experiments (SD 5.3E-05 in r12c5)
T1 construct: Biotinylated in the CSF1R displacement ELISA; also called cyno IL-34
T1 sequence: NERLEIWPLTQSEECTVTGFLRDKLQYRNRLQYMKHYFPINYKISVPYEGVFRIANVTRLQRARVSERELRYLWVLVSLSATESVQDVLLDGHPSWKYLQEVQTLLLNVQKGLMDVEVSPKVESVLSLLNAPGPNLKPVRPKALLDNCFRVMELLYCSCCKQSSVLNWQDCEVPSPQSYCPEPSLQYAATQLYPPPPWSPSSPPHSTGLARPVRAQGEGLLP
Experimental: (§1) Binding affinity of anti-IL-34 monoclonal antibodies of the present disclosure to human and/or cynomolgus monkey (cyno) IL-34 may be determined by methods known in the art. Briefly, the binding affinity and kinetics of the antibody are evaluated by surface plasmon resonance using BIAcore™ 8K (Cytiva) at 37° C. […] For each cycle, 200 μL IL-34 is flowed over the immobilized antibody at 100 μL/minute, and then dissociated for 20 minutes. The chip surface is regenerated with 50 μL of glycine buffer at pH 1.5 at a flow rate of 100 μL/minute. The data are fit to a 1:1 Langmiur binding mode to derive kon, koff and to calculate KD.

[2] = biological target: T2, human IL-34 (human, UniProt Q6ZMJ4 21-242, Biotinylated in the CSF1R displacement ELISA (sites not given); secreted homodimer, one monomer chain given.); assay: SPR, BIAcore 8K, 37 C, antibody captured on Protein A chip, IL-34 flowed; mean of at least three experiments (SD 4.8 in r10c6)
T2 construct: Biotinylated in the CSF1R displacement ELISA; also called hIL-34; h IL-34
T2 sequence: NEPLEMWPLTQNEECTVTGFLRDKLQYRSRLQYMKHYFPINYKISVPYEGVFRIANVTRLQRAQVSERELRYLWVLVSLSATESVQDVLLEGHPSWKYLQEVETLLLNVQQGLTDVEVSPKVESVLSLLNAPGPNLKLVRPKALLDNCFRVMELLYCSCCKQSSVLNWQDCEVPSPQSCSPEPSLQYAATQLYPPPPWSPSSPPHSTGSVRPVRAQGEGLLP
Experimental: as §1

[3] = biological target: T1, cynomolgus monkey IL-34; assay: SPR, BIAcore 8K, 37 C, antibody captured on Protein A chip, IL-34 flowed; mean of at least three experiments (SD 2.0E+06 in r12c4)
Experimental: as §1

[4] = biological target: T2, human IL-34; assay: competition ELISA: displacement of biotinylated human IL-34 (3.7 nM) from plate-bound hCSF1R_Fc
Experimental: (§2) CSF1R extracellular domain proteins (hCSFIR_Fc commercially available from R&D Cat #329-MR, cynomolgus CSFIR ECD-Fc (AAA is a linker between CSF1R extracellular domain and Fc) (SEQ ID NO: 53)) can be bound to an ELISA plate at concentrations of 30 nM in order to capture soluble biotinylated IL-34 and allowed to bind for one hour. After washing and blocking plate, biotinylated IL-34 may be added, then detected via streptavidin conjugated peroxidase. Concentrations of labeled IL-34 near the 80% binding level (EC₈₀) (3.7 nM) may be used in conjunction with a range of antibody concentrations (0-100 nM) to determine concentration of antibody required to displace IL-34 from CSF1R. After 1 hr incubation, IL-34 bound to CSFIR is detected via streptavidin conjugated peroxidase. The antibodies are assayed (n=2) and the average and standard deviation at each concentration are calculated. The potency of an antibody to displace IL-34 from CSFIR is reported as IC₅₀ (nM) with the calculated confidence interval (CI) in Table 4 and Table 5.

[5] = biological target: T1, cynomolgus monkey IL-34; assay: SPR, BIAcore 8K, 37 C, antibody captured on Protein A chip, IL-34 flowed; mean of at least three experiments (SD 16.2 in r12c6)
Experimental: as §1

[6] = biological target: T2, human IL-34; assay: SPR, BIAcore 8K, 37 C, antibody captured on Protein A chip, IL-34 flowed; mean of at least three experiments (SD 4.4E+05 in r10c4)
Experimental: as §1

[7] = biological target: T2, human IL-34; assay: cell-based or functional assay
[8] = biological target: T1, cynomolgus monkey IL-34; assay: competition ELISA: displacement of biotinylated cyno IL-34 from plate-bound cynomolgus CSF1R ECD-Fc
Experimental: as §2

[9] = biological target: T2, human IL-34; assay: SPR, BIAcore 8K, 37 C, antibody captured on Protein A chip, IL-34 flowed; mean of at least three experiments (SD 2.9E-05 in r10c5)
Experimental: as §1

koff [1]: 0.0003 s⁻¹
Kd [2]: 0.0312 nM
kon [3]: 7.9e+06 M⁻¹ s⁻¹
IC50 [4]: 0.154 nM
Kd [5]: 0.0409 nM
kon [6]: 8.4e+06 M⁻¹ s⁻¹
IC50 (ug/ml), neutralization of human IL-34 induced luciferase reporter activity in hCSF1R expressing 293 SRE cells [7]: 0.0458 µg/mL
IC50 [8]: 0.644 nM
koff [9]: 0.00026 s⁻¹
B1: Antibody 1 (antibody, human IgG4 S228P, kappa, F234A L235A, V domains shown)
VH: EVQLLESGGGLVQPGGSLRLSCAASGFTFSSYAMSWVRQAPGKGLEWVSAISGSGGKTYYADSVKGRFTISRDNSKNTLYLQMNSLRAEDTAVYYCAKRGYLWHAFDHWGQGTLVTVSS
VL: EIVLTQSPGTLSLSPGERATLSCRASQSVSSLYLAWYQQKPGQAPRLLIYGASSRATGIPDRFSGSGSGTDFTLTISRLEPEDFAVYYCQVVGSSPPFTFGGGTKVEIKR
notes: Fully human anti-IL-34 IgG4 (IgG4 PAA hinge/Fc, C-terminal lysine deleted), kappa light chain; also called Exemplified Antibody 1; exemplified antibody 1

From patent US20250296997A1 (Eli Lilly, published 2025)
